Measurements taken from article PMC3248148, “Hsp90 can Accommodate the Simultaneous Binding of the FKBP52 and HOP Proteins” (Oncotarget, 2011).

How the values were obtained:
[1] = target: T1, human Hsp90α (human, UniProt P07900 1-732); assay: co-IP; Hsp90α bait held on monoclonal Hsp90 (H90-10) antibody/Protein A-Sepharose beads; p23, FKBP52 and HOP added in the 2:1:2:2 molar ratios; 30°C, 60 minutes; without ATP, with 5mM ATP, 20mM Na2MoO4, and with ATP plus 0.01% dodecyl-maltopyranoside; SDS-PAGE; conditions: both partners purified
T1 construct: Hsp90α, human, expressed from pET28b-Hsp90α; Dimer by Sephacryl S-200 SEC; also called Hsp90 dimer; source: E. coli BL21 (DE3), purified (Ni2+ HisTrap, Q-Sepharose, Sephacryl S-200)

[2] = target: the molecule itself; assay: SEC; HiPrep Sephacryl S-200; each protein alone; 50mM Hepes, 150mM NaCl, 50mM KCl, 10mM MgCl2, 1mM DTT, pH 7.5; molecular weight interpolated from standards
[3] = target: T1, human Hsp90α; assay: native gel or EMSA; 7.5% Native-PAGE, no detergents, reducing or denaturing agents in the gel buffers; mixtures incubated at 30°C for 60 minutes; with and without 5mM ATP, 20mM Na2MoO4; with and without 0.01% dodecyl-maltopyranoside; conditions: both partners purified

Binder | binding result [1] | stoichiometry N [2] | stoichiometry N [3]
human p23 co-chaperone (natural protein, UniProt Q15185 1-160, looked up, p23 co-chaperone, human, untagged, expressed from pET23-p23; Eluted from Sephacryl S-200 as dimer and monomer; monomer by DLS; source: E. coli BL21 (DE3), purified (DEAE FF, Q-Sepharose, Sephacryl S-200)) MQPASAKWYDRRDYVFIEFCVEDSKDVNVNFEKSKLTFSCLGGSDNFKHLNEIDLFHCIDPNDSKHKRTDRSILCCLRKGESGQSWPRLTKERAKLNWLSVDFNNWKDWEDDSDEDMSNFDRFSEMMNNMGGDEDVDLPEVDGADDDSQDSDDEKMPDLE | binds |  | 
human FKBP52 (52 kDa immunophilin FK506-binding protein) (natural protein, UniProt Q02790 1-459, looked up, FKBP52, human, expressed from pET28b-FKBP52; Dimer in solution by SEC and DLS; The gene is printed as Fkbp4, of the mouse; source: E. coli BL21 (DE3), purified (Ni2+ HisTrap, Q-Sepharose, Sephacryl S-200)) MTAEEMKATESGAQSAPLPMEGVDISPKQDEGVLKVIKREGTGTEMPMIGDRVFVHYTGWLLDGTKFDSSLDRKDKFSFDLGKGEVIKAWDIAIATMKVGEVCHITCKPEYAYGSAGSPPKIPPNATLVFEVELFEFKGEDLTEEEDGGIIRRIQTRGEGYAKPNEGAIVEVALEGYYKDKLFDQRELRFEIGEGENLDLPYGLERAIQRMEKGEHSIVYLKPSYAFGSVGKEKFQIPPNAELKYELHLKSFEKAKESWEMNSEEKLEQSTIVKERGTVYFKEGKYKQALLQYKKIVSWLEYESSFSNEEAQKAQALRLASHLNLAMCHLKLQAFSAAIESCNKALELDSNNEKGLFRRGEAHLAVNDFELARADFQKVLQLYPNNKAAKTQLAVCQQRIRRQLAREKKLYANMFERLAEEENKAKAEASSGDHPTDTEMKEEQKSNTAGSQSQVETEA |  | 2 | 0.5 FKBP52 per Hsp90 chain (1:2)
